Laboratory results reported in the supplement of paper PMC9112550, “Optimization of the antimicrobial peptide Bac7 by deep mutational scanning” (BMC Biology, 2022).
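Further: peptides expressed intracellularly from a pBAD plasmid library in pooled LB shake-flask culture, induced with 0.3% L-arabinose, DNA abundance read by NGS, three biological replicates, DESeq2 with apeglm shrinkage.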

Each sequence was assayed on Escherichia coli TOP10 (assay: shrunken log2 fold change of peptide-encoding DNA abundance (4.5 h post-induction vs induction); higher = less antimicrobial activity (less host growth inhibition)). Details: time post-induction: 4.5 h; library: site-saturation at positions 5, 18, 19, 20.
RRIRWRPPRLPRPRPRPGFRPRP was tested, and the “shrunken log2 fold change” value was 0.221. In the case of RRIRLRPPRLPRPRPRPHNGPRP, the “shrunken log2 fold change” value was -0.00962. RRIRTRPPRLPRPRPRPAVTPRP was tested, and the “shrunken log2 fold change” value was 0.102. RRIRNRPPRLPRPRPRPEIFPRP was tested, and the “shrunken log2 fold change” value was -0.0153. In the case of RRIRGRPPRLPRPRPRPIMHPRP, the “shrunken log2 fold change” value was 0.341. In the case of RRIRERPPRLPRPRPRPAMDPRP, the “shrunken log2 fold change” value was 0.283. In the case of RRIRVRPPRLPRPRPRPLIGPRP, the “shrunken log2 fold change” value was 0.0681. With RRIRGRPPRLPRPRPRPFYRPRP the “shrunken log2 fold change” value was -0.26. With RRIRGRPPRLPRPRPRPWKHPRP the “shrunken log2 fold change” value was -0.161. In the case of RRIRIRPPRLPRPRPRPTITPRP, the “shrunken log2 fold change” value was -0.996. For RRIRLRPPRLPRPRPRPCTDPRP, the “shrunken log2 fold change” value was -0.199. For RRIRKRPPRLPRPRPRPHPPPRP, the “shrunken log2 fold change” value was 1.27. For RRIRERPPRLPRPRPRPTYIPRP, the “shrunken log2 fold change” value was -1.02. In the case of RRIRMRPPRLPRPRPRPGEIPRP, the “shrunken log2 fold change” value was 0.995. In the case of RRIRFRPPRLPRPRPRPGWCPRP, the “shrunken log2 fold change” value was 0.109. RRIRYRPPRLPRPRPRPQMWPRP was tested, and the “shrunken log2 fold change” value was -0.213. RRIRYRPPRLPRPRPRPVFKPRP was tested, and the “shrunken log2 fold change” value was -0.238. With RRIRARPPRLPRPRPRPMVSPRP the “shrunken log2 fold change” value was 0.124. For RRIRTRPPRLPRPRPRPSHCPRP, the “shrunken log2 fold change” value was -0.0229. RRIRNRPPRLPRPRPRPMGDPRP was tested, and the “shrunken log2 fold change” value was -0.00663. For RRIRPRPPRLPRPRPRPYFCPRP, the “shrunken log2 fold change” value was -0.293. For RRIRGRPPRLPRPRPRPYWEPRP, the “shrunken log2 fold change” value was -0.0842. With RRIRERPPRLPRPRPRPHFTPRP the “shrunken log2 fold change” value was -0.246. RRIRSRPPRLPRPRPRPINVPRP was tested, and the “shrunken log2 fold change” value was -0.418. For RRIRHRPPRLPRPRPRPSPTPRP, the “shrunken log2 fold change” value was 0.0862. With RRIRFRPPRLPRPRPRPKWTPRP the “shrunken log2 fold change” value was -0.196. With RRIRMRPPRLPRPRPRPNYHPRP the “shrunken log2 fold change” value was -0.525. With RRIRVRPPRLPRPRPRPTVDPRP the “shrunken log2 fold change” value was 0.177. For RRIRTRPPRLPRPRPRPSRWPRP, the “shrunken log2 fold change” value was 0.0135. In the case of RRIRCRPPRLPRPRPRPYWRPRP, the “shrunken log2 fold change” value was -0.0756. For RRIRCRPPRLPRPRPRPYYDPRP, the “shrunken log2 fold change” value was -0.361. RRIRARPPRLPRPRPRPHDIPRP was tested, and the “shrunken log2 fold change” value was -0.08. RRIRIRPPRLPRPRPRPQSAPRP was tested, and the “shrunken log2 fold change” value was 0.0313. RRIRCRPPRLPRPRPRPNDEPRP was tested, and the “shrunken log2 fold change” value was -0.0298. With RRIRNRPPRLPRPRPRPNGTPRP the “shrunken log2 fold change” value was -0.167. RRIRTRPPRLPRPRPRPSNRPRP was tested, and the “shrunken log2 fold change” value was -0.0802. In the case of RRIRVRPPRLPRPRPRPPCWPRP, the “shrunken log2 fold change” value was 0.422. For RRIRERPPRLPRPRPRPVIAPRP, the “shrunken log2 fold change” value was -0.205. In the case of RRIRHRPPRLPRPRPRPKTGPRP, the “shrunken log2 fold change” value was -0.0854. For RRIRQRPPRLPRPRPRPEWKPRP, the “shrunken log2 fold change” value was -0.00192. In the case of RRIRYRPPRLPRPRPRPVPPPRP, the “shrunken log2 fold change” value was 0.208. With RRIRIRPPRLPRPRPRPKAGPRP the “shrunken log2 fold change” value was 0.0458. In the case of RRIRFRPPRLPRPRPRPNILPRP, the “shrunken log2 fold change” value was -0.178. In the case of RRIRQRPPRLPRPRPRPWPHPRP, the “shrunken log2 fold change” value was 0.172. RRIRVRPPRLPRPRPRPAYNPRP was tested, and the “shrunken log2 fold change” value was -0.394. RRIRGRPPRLPRPRPRPLWFPRP was tested, and the “shrunken log2 fold change” value was 0.183. RRIRARPPRLPRPRPRPKHMPRP was tested, and the “shrunken log2 fold change” value was -0.158. In the case of RRIRPRPPRLPRPRPRPRPNPRP, the “shrunken log2 fold change” value was 0.505. For RRIRVRPPRLPRPRPRPEELPRP, the “shrunken log2 fold change” value was -0.0522. With RRIRDRPPRLPRPRPRPFKHPRP the “shrunken log2 fold change” value was -0.264. In the case of RRIRVRPPRLPRPRPRPIIHPRP, the “shrunken log2 fold change” value was -0.809. With RRIRMRPPRLPRPRPRPEWPPRP the “shrunken log2 fold change” value was 0.0994. For RRIRVRPPRLPRPRPRPCEFPRP, the “shrunken log2 fold change” value was -0.242. In the case of RRIRGRPPRLPRPRPRPVTQPRP, the “shrunken log2 fold change” value was 0.445. For RRIRGRPPRLPRPRPRPTNTPRP, the “shrunken log2 fold change” value was 0.676. RRIRPRPPRLPRPRPRPDSEPRP was tested, and the “shrunken log2 fold change” value was -0.208. With RRIRDRPPRLPRPRPRPVKQPRP the “shrunken log2 fold change” value was -0.0215. RRIRVRPPRLPRPRPRPCKFPRP was tested, and the “shrunken log2 fold change” value was 0.01. In the case of RRIRIRPPRLPRPRPRPTRWPRP, the “shrunken log2 fold change” value was 0.242. With RRIRPRPPRLPRPRPRPMYYPRP the “shrunken log2 fold change” value was -0.631. In the case of RRIRFRPPRLPRPRPRPWQQPRP, the “shrunken log2 fold change” value was -0.104. RRIRERPPRLPRPRPRPYMMPRP was tested, and the “shrunken log2 fold change” value was -0.259. In the case of RRIRLRPPRLPRPRPRPHHPPRP, the “shrunken log2 fold change” value was -0.316. With RRIRKRPPRLPRPRPRPGPSPRP the “shrunken log2 fold change” value was 2.27. RRIRCRPPRLPRPRPRPATMPRP was tested, and the “shrunken log2 fold change” value was -0.0924. In the case of RRIRDRPPRLPRPRPRPHVEPRP, the “shrunken log2 fold change” value was -0.109. For RRIRRRPPRLPRPRPRPTNYPRP, the “shrunken log2 fold change” value was -0.0945. For RRIRNRPPRLPRPRPRPPQDPRP, the “shrunken log2 fold change” value was 0.0281. With RRIRHRPPRLPRPRPRPWHFPRP the “shrunken log2 fold change” value was -0.0331. With RRIRIRPPRLPRPRPRPETGPRP the “shrunken log2 fold change” value was -0.322. With RRIRWRPPRLPRPRPRPYVDPRP the “shrunken log2 fold change” value was -0.171. In the case of RRIRFRPPRLPRPRPRPFLIPRP, the “shrunken log2 fold change” value was -0.304. RRIRDRPPRLPRPRPRPLDTPRP was tested, and the “shrunken log2 fold change” value was 0.0803. With RRIRDRPPRLPRPRPRPYALPRP the “shrunken log2 fold change” value was -0.051. With RRIRNRPPRLPRPRPRPNVAPRP the “shrunken log2 fold change” value was 3.26.
